Publication PMC8324300, “CDK1 controls CHMP7-dependent nuclear envelope reformation” (eLife, 2021)
Changes are numbered by the printed parent chain.

Assays:
Conditions in all cases: both partners purified
[1] = biological target: T1, recombinant CHMP7 (full length, wild type) (human, UniProt Q8WUX9 1-453); assay: co-IP; purified CHMP7 or S3D/S441D with HA-LEM2^CT at 1:2 in TKD buffer, overnight at 4°C; CHMP7 captured on anti-CHMP7 Dynabeads; washes with 0.05% Tween-20; blots with anti-CHMP7 and anti-HA
T1 construct: CHMP7, human, full-length open reading frame; the TEV site cleaves at the 1st methionine; In the CDK1 experiments this is the sample incubated with CDK1:CyclinB1 without ATP; also called CHMP7 wildtype; WT; source: E. coli BL21(DE3), purified (Ni-NTA, TEV cleavage, Superdex 200, monomeric fractions); not shown: 2xHis6, N-terminal, cleaved; NusA, N-terminal, cleaved
T1 sequence (looked up): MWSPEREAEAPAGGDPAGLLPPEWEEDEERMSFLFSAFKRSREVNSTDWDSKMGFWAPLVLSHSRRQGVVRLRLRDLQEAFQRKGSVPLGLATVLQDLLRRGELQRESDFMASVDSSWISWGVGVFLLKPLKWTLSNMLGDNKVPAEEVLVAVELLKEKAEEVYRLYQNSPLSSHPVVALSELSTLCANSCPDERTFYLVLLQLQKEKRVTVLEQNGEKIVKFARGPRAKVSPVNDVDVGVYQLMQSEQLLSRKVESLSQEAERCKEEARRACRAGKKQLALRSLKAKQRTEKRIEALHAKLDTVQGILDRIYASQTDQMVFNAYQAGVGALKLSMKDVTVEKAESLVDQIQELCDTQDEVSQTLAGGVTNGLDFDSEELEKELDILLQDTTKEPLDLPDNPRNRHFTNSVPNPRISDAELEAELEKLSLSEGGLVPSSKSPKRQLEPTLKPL

[2] = biological target: T2, recombinant CHMP7 S3D/S441D (human, UniProt Q8WUX9 1-453, S3D | S441D); assay: co-sedimentation; 5 μM CHMP7 or mutant with 10 μM HA-LEM2^CT (one legend says equimolar) in TKD buffer (50 mM Tris HCl pH 8, 150 mM KCl, 1 mM DTT), room temperature for 2 hr; 22,000 x g for 40 min at 4°C; blots with anti-CHMP7 and anti-HA
T2 construct: CHMP7, human, full length with phosphomimetic residues at Ser3 and Ser441; source: E. coli BL21(DE3), purified (Ni-NTA, TEV cleavage, Superdex 200); not shown: 2xHis6, N-terminal, cleaved; NusA, N-terminal, cleaved
T2 sequence (looked up): T1 sequence (looked up) with S3D, S441D

[3] = biological target: T3, recombinant CHMP7 S3E/S441E (human, UniProt Q8WUX9 1-453, S3E | S441E); assay: as above
T3 construct: CHMP7, human, full length with phosphomimetic residues at Ser3 and Ser441; also called CHMP7 S3E/D441E (as printed once in the methods); source: E. coli BL21(DE3), purified (Ni-NTA, TEV cleavage, Superdex 200); not shown: 2xHis6, N-terminal, cleaved; NusA, N-terminal, cleaved
T3 sequence (looked up): T1 sequence (looked up) with S3E, S441E

[4] = biological target: T4, CDK1-phosphorylated CHMP7 (human, UniProt Q8WUX9 1-453, phosphoserine at Ser3 and Ser441 (CDK1 sites named by the paper)); assay: co-IP; CHMP7 pre-incubated with CDK1:CyclinB1 with or without 3 mM ATP, then 5 μM CHMP7 with 10 μM HA-LEM2^CT dialysed overnight at 4°C from HiSalt (250 mM KCl) into LoSalt buffer (30 mM HEPES pH 8, 25 mM KCl, 1 mM DTT); CHMP7 captured on anti-CHMP7 Dynabeads
T4 construct: CHMP7, human, full-length open reading frame, phosphorylated in vitro by CDK1:CyclinB1; also called recombinant CHMP7 incubated with CDK1 and CCNB1 in the presence of ATP; source: E. coli BL21(DE3), purified; phosphorylated in vitro with bought CDK1:CyclinB1 complex (Millipore) and 3 mM ATP; not shown: 2xHis6, N-terminal, cleaved; NusA, N-terminal, cleaved
T4 sequence (looked up): T1 sequence (looked up)

binding result [1]: binds
binding result [2]: binds
binding result [3]: binds
binding result [4]: binds
B1: recombinant HA-LEM2^CT (LEM2 C-terminal domain 395-503) (domain or fragment, human, UniProt Q8NC56 395-503, looked up)
chain: ILLKYRWRKLEEEEQAMYEMVKKIIDVVQDHYVDWEQDMERYPYVGILHVRDSLIPPQSRRRMKRVWDRAVEFLASNESRIQTESHRVAGEDMLVWRWTKPSSFSDSER
notes: LEM2 (LEMD2), human, codon-optimised synthetic gene, C-terminal domain residues 395-503; also called LEM2's C-terminus; source: E. coli BL21(DE3), purified (Ni-NTA, on-bead TEV cleavage); not shown: 2xHis6, N-terminal, cleaved; NusA, N-terminal, cleaved; HA, N-terminal, kept
